Source: article doi:10.1101/732289 (bioRxiv, 2020)

Molecular target: human KIX domain of CBP with saturating DUX4 9aaTAD peptide (human, UniProt Q92793;Q9UBX2)
Assay: MST

human KIX domain of CBP with saturating DUX4 9aaTAD peptide, sequence (Q92793 587-673, one chain of several): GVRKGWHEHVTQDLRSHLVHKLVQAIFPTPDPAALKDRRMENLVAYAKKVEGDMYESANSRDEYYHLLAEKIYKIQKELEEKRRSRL

## EEEYRALLEE [DUX4 KBM peptide (E414-E423)]
  Kd: ~1100 nM
